Measurements published in US20230407373A1 (priority 2020, published 2023).

Columns and labels:
gRNA of HCoV-OC43 = format: binding; details: for target (spectral count, OC43 Probe I RNP capture) / background (spectral count, no-probe control): type n_48_v: 48 hours post-infection; for target (spectral count, OC43 Probe I RNP capture): infected cells, unweighted spectral count; for background (spectral count, no-probe control): no-probe control on infected cells; for target (spectral count) / background (spectral count): type g_36_m, 36 hpi, Probe I; for target (spectral count): HCoV-OC43-infected HCT-8 cells; for background (spectral count): uninfected-probe control
HCoV-OC43 gRNA and sgRNA = format: binding

| Molecule | target (spectral count, OC43 Probe I RNP capture) (gRNA of HCoV-OC43) | background (spectral count, no-probe control) (gRNA of HCoV-OC43) | target (spectral count) (gRNA of HCoV-OC43) | background (spectral count) (gRNA of HCoV-OC43) | target (unweighted spectral count, OC43 Probe II capture) (HCoV-OC43 gRNA and sgRNA; 24 hpi, type n_24_v, tested against no-probe control, FDR<10%) | target (unweighted spectral count, OC43 Probe II) (HCoV-OC43 gRNA and sgRNA; type n_48_v, 48 hpi, OC43 Probe II capture on infected cells) | background (unweighted spectral count, no-probe control) (HCoV-OC43 gRNA and sgRNA; type n_48_v, 48 hpi, no-probe control on infected cells) |
| --- | --- | --- | --- | --- | --- | --- | --- |
| SNW1 (protein, UniProt Q13573 2-536, looked up) SNW domain-containing protein …: ALTSFLPAPTQLSQDQLEAEEKARSQRSRQTSLVSSRREPPPYGYRKGWIPRLLEDFGDGGAFPEIHVAQYPLDMGRKKKMSNALAIQVDSEGKIKYDAIARQGQSKDKVIYSKYTDLVPKEVMNADDPDLQRPDEEAIKEITEKTRVALEKSVSQKVAAAMPVRAADKLAPAQYIRYTPSQQGVAFNSGAKQRVIRMVEMQKDPMEPPRFKINKKIPRGPPSPPAPVMHSPSRKMTVKEQQEWKIPPCISNWKNAKGYTIPLDKRLAADGRGLQTVHINENFAKLAEALYIADRKAREAVEMRAQVERKMAQKEKEKHEEKLREMAQKARERRAGIKTHVEKEDGEARERDEIRHDRRKERQHDRNLSRAAPDKRSKLQRNENRDISEVIALGVPNPRTSNEVQYDQRLFNQSKGMDSGFAGGEDEIYNVYDQAWRGGKDMAQSIYRPSKNLDKDMYGDDLEARIKTNRFVPDKEFSGSDRRQRGREGPVQFEEDPFGLDKFLEEAKQHGGSKRPSDSSRPKEHEHEGKKRRKE | 5 | 1 | – | – | – | – | – |
| ATXN2 ? (protein, UniProt Q99700 1-1313, looked up) Ataxin-2: MRSAAAAPRSPAVATESRRFAAARWPGWRSLQRPARRSGRGGGGAAPGPYPSAAPPPPGPGPPPSRQSSPPSASDCFGSNGNGGGAFRPGSRRLLGLGGPPRPFVVLLLPLASPGAPPAAPTRASPLGARASPPRSGVSLARPAPGCPRPACEPVYGPLTMSLKPQQQQQQQQQQQQQQQQQQQQQQQPPPAAANVRKPGGSGLLASPAAAPSPSSSSVSSSSATAPSSVVAATSGGGRPGLGRGRNSNKGLPQSTISFDGIYANMRMVHILTSVVGSKCEVQVKNGGIYEGVFKTYSPKCDLVLDAAHEKSTESSSGPKREEIMESILFKCSDFVVVQFKDMDSSYAKRDAFTDSAISAKVNGEHKEKDLEPWDAGELTANEELEALENDVSNGWDPNDMFRYNEENYGVVSTYDSSLSSYTVPLERDNSEEFLKREARANQLAEEIESSAQYKARVALENDDRSEEEKYTAVQRNSSEREGHSINTRENKYIPPGQRNREVISWGSGRQNSPRMGQPGSGSMPSRSTSHTSDFNPNSGSDQRVVNGGVPWPSPCPSPSSRPPSRYQSGPNSLPPRAATPTRPPSRPPSRPSRPPSHPSAHGSPAPVSTMPKRMSSEGPPRMSPKAQRHPRNHRVSAGRGSISSGLEFVSHNPPSEAATPPVARTSPSGGTWSSVVSGVPRLSPKTHRPRSPRQNSIGNTPSGPVLASPQAGIIPTEAVAMPIPAASPTPASPASNRAVTPSSEAKDSRLQDQRQNSPAGNKENIKPNETSPSFSKAENKGISPVVSEHRKQIDDLKKFKNDFRLQPSSTSESMDQLLNKNREGEKSRDLIKDKIEPSAKDSFIENSSSNCTSGSSKPNSPSISPSILSNTEHKRGPEVTSQGVQTSSPACKQEKDDKEEKKDAAEQVRKSTLNPNAKEFNPRSFSQPKPSTTPTSPRPQAQPSPSMVGHQQPTPVYTQPVCFAPNMMYPVPVSPGVQPLYPIPMTPMPVNQAKTYRAVPNMPQQRQDQHHQSAMMHPASAAGPPIAATPPAYSTQYVAYSPQQFPNQPLVQHVPHYQSQHPHVYSPVIQGNARMMAPPTHAQPGLVSSSATQYGAHEQTHAMYACPKLPYNKETSPSFYFAISTGSLAQQYAHPNATLHPHTPHPQPSATPTGQQQSQHGGSHPAPSPVQHHQHQAAQALHLASPQQQSAIYHAGLAPTPPSMTPASNTQSPQNSFPAAQQTVFTIHPSHVQPAYTNPPHMAHVPQAHVQSGMVPSHPTAHAPMMLMTTQPPGGPQAALAQSALQPIPVSTTAHFPYMTHPSVQAHHQQQL | 12 | 1 | – | – | – | – | – |
| HNRNPAO: host protein, UniProt Q13151 (protein, UniProt Q13151 1-305, looked up) Heterogeneous nuclear …: MENSQLCKLFIGGLNVQTSESGLRGHFEAFGTLTDCVVVVNPQTKRSRCFGFVTYSNVEEADAAMAASPHAVDGNTVELKRAVSREDSARPGAHAKVKKLFVGGLKGDVAEGDLIEHFSQFGTVEKAEIIADKQSGKKRGFGFVYFQNHDAADKAAVVKFHPIQGHRVEVKKAVPKEDIYSGGGGGGSRSSRGGRGGRGRGGGRDQNGLSKGGGGGYNSYGGYGGGGGGGYNAYGGGGGGSSYGGSDYGNGFGGFGSYSQHQSSYGPMKSGGGGGGGGSSWGGRSNSGPYRGGYGGGGGYGGSSF | – | – | 15 | 2 | – | – | – |
| RBM15: host protein, UniProt Q96T37 (protein, UniProt Q96T37 1-977, looked up) RNA-binding protein 15: MRTAGRDPVPRRSPRWRRAVPLCETSAGRRVTQLRGDDLRRPATMKGKERSPVKAKRSRGGEDSTSRGERSKKLGGSGGSNGSSSGKTDSGGGSRRSLHLDKSSSRGGSREYDTGGGSSSSRLHSYSSPSTKNSSGGGESRSSSRGGGGESRSSGAASSAPGGGDGAEYKTLKISELGSQLSDEAVEDGLFHEFKRFGDVSVKISHLSGSGSGDERVAFVNFRRPEDARAAKHARGRLVLYDRPLKIEAVYVSRRRSRSPLDKDTYPPSASVVGASVGGHRHPPGGGGGQRSLSPGGAALGYRDYRLQQLALGRLPPPPPPPLPRDLERERDYPFYERVRPAYSLEPRVGAGAGAAPFREVDEISPEDDQRANRTLFLGNLDITVTESDLRRAFDRFGVITEVDIKRPSRGQTSTYGFLKFENLDMSHRAKLAMSGKIIIRNPIKIGYGKATPTTRLWVGGLGPWVPLAALAREFDRFGTIRTIDYRKGDSWAYIQYESLDAAHAAWTHMRGFPLGGPDRRLRVDFADTEHRYQQQYLQPLPLTHYELVTDAFGHRAPDPLRGARDRTPPLLYRDRDRDLYPDSDWVPPPPPVRERSTRTAATSVPAYEPLDSLDRRRDGWSLDRDRGDRDLPSSRDQPRKRRLPEESGGRHLDRSPESDRPRKRHCAPSPDRSPELSSSRDRYNSDNDRSSRLLLERPSPIRDRRGSLEKSQGDKRDRKNSASAERDRKHRTTAPTEGKSPLKKEDRSDGSAPSTSTASSKLKSPSQKQDGGTAPVASASPKLCLAWQGMLLLKNSNFPSNMHLLQGDLQVASSLLVEGSTGGKVAQLKITQRLRLDQPKLDEVTRRIKVAGPNGYAILLAVPGSSDSRSSSSSAASDTATSTQRPLRNLVSYLKQKQAAGVISLPVGGNKDKENTGVLHAFPPCEFSQQFLDSPAKALAKSEEDYLVMIIVRGFGFQIGVRYENKKRENLALTLL | 14 | 1 | 9 | 1 | 5 | 11 | 1 |
| TECR: host protein, UniProt Q9NZ01 (protein, UniProt Q9NZ01 1-308, looked up) Very-long-chain enoyl-CoA …: MKHYEVEILDAKTREKLCFLDKVEPHATIAEIKNLFTKTHPQWYPARQSLRLDPKGKSLKDEDVLQKLPVGTTATLYFRDLGAQISWVTVFLTEYAGPLFIYLLFYFRVPFIYGHKYDFTSSRHTVVHLACICHSFHYIKRLLETLFVHRFSHGTMPLRNIFKNCTYYWGFAAWMAYYINHPLYTPPTYGAQQVKLALAIFVICQLGNFSIHMALRDLRPAGSKTRKIPYPTKNPFTWLFLLVSCPNYTYEVGSWIGFAIMTQCLPVALFSLVGFTQMTIWAKGKHRSYLKEFRDYPPLRMPIIPFLL | – | – | 9 | 1 | – | – | – |
| RIAS: host protein, UniProt P31483 (protein, UniProt P31483 1-386, looked up) Cytotoxic granule associated …: MEDEMPKTLYVGNLSRDVTEALILQLFSQIGPCKNCKMIMDTAGNDPYCFVEFHEHRHAAAALAAMNGRKIMGKEVKVNWATTPSSQKKDTSSSTVVSTQRSQDHFHVFVGDLSPEITTEDIKAAFAPFGRISDARVVKDMATGKSKGYGFVSFFNKWDAENAIQQMGGQWLGGRQIRTNWATRKPPAPKSTYESNTKQLSYDEVVNQSSPSNCTVYCGGVTSGLTEQLMRQTFSPFGQIMEIRVFPDKGYSFVRFNSHESAAHAIVSVNGTTIEGHVVKCYWGKETLDMINPVQQQNQIGYPQPYGQWGQWYGNAQQIGQYMPNGWQVPAYGMYGQAWNQQGFNQTQSSAPWMGPNYGVQPPQGQNGSMLPNQPSGYRVAGYETQ | – | – | 10 | 1 | – | – | – |
| MSN (protein, UniProt P26038 2-577, looked up) Moesin: PKTISVRVTTMDAELEFAIQPNTTGKQLFDQVVKTIGLREVWFFGLQYQDTKGFSTWLKLNKKVTAQDVRKESPLLFKFRAKFYPEDVSEELIQDITQRLFFLQVKEGILNDDIYCPPETAVLLASYAVQSKYGDFNKEVHKSGYLAGDKLLPQRVLEQHKLNKDQWEERIQVWHEEHRGMLREDAVLEYLKIAQDLEMYGVNYFSIKNKKGSELWLGVDALGLNIYEQNDRLTPKIGFPWSEIRNISFNDKKFVIKPIDKKAPDFVFYAPRLRINKRILALCMGNHELYMRRRKPDTIEVQQMKAQAREEKHQKQMERAMLENEKKKREMAEKEKEKIEREKEELMERLKQIEEQTKKAQQELEEQTRRALELEQERKRAQSEAEKLAKERQEAEEAKEALLQASRDQKKTQEQLALEMAELTARISQLEMARQKKESEAVEWQQKAQMVQEDLEKTRAELKTAMSTPHVAEPAENEQDEQDENGAEASADLRADAMAKDRSEEERTTEAEKNERVQKHLKALTSELANARDESKKTANDMIHAENMRLGRDKYKTLRQIRQGNTKQRIDEFESM | 5 | 1 | – | – | – | – | – |
| HNANPF (protein, UniProt P52597 1-415, looked up) Heterogeneous nuclear …: MMLGPEGGEGFVVKLRGLPWSCSVEDVQNFLSDCTIHDGAAGVHFIYTREGRQSGEAFVELGSEDDVKMALKKDRESMGHRYIEVFKSHRTEMDWVLKHSGPNSADSANDGFVRLRGLPFGCTKEEIVQFFSGLEIVPNGITLPVDPEGKITGEAFVQFASQELAEKALGKHKERIGHRYIEVFKSSQEEVRSYSDPPLKFMSVQRPGPYDRPGTARRYIGIVKQAGLERMRPGAYSTGYGGYEEYSGLSDGYGFTTDLFGRDLSYCLSGMYDHRYGDSEFTVQSTTGHCVHMRGLPYKATENDIYNFFSPLNPVRVHIEIGPDGRVTGEADVEFATHEEAVAAMSKDRANMQHRYIELFLNSTTGASNGAYSSQVMQGMGVSAAQATYSGLESQSVSGCYGAGYSGQNSMGGYD | – | 4 | – | – | – | – | – |
